Consider one substance from paper doi:10.1101/2020.05.26.111013.

For this experiment, the target named is PelX^C232S (Pseudomonas protegens Pf-5). The experiment is described as follows: SEC. (In general: Size exclusion chromatography separates by hydrodynamic size, large species first.)

As usually defined, the stoichiometry N is a count of units in the complex or per binding partner.

For PelX^C232S (enzyme), the stoichiometry N amounted to 2.
